Assay results as given in paper PMC3401450 (Nucleic Acids Research, 2012).
Where “and” joins values, the source holds several entries; their conditions need not be identical. Equal entries are not always repeated. Each block holds one molecule with its values, some of them ahead of it.

Columns and labels:
[1] = biological target: Full-length Dreb2a fused to His-tag and GB1-tag (GB1-Dreb2a f.l.) (A. thaliana) (UniProt O82132); assay: cross-linking
[2] = biological target: Dreb2a f.l. (GB1 fusion);Med25 551-680 (ACID domain) (Arabidopsis thaliana;Arabidopsis …, UniProt O82132;Q7XYY2 1-335;551-680, |); assay: EMSA supershift
Dreb2a f.l. (GB1 fusion) = Dreb2a f.l. (GB1 fusion) (Arabidopsis thaliana, UniProt O82132 1-335); assay: EMSA
[3] = biological target: T1, Dreb2a 168-335 (binding domain and activation domain of Dreb2a) (A. thaliana, UniProt O82132 168-335); assay: SPR
T1 sequence (looked up): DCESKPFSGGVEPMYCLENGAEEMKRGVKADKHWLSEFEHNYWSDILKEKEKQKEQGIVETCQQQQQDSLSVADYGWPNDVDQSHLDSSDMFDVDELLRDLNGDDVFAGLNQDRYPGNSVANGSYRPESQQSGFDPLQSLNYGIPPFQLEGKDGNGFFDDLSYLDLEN

[4] = biological target: T2, Full-length Dreb2a fused to His-tag and GB1-tag (GB1-Dreb2a f.l.) (A. thaliana, UniProt O82132 1-335); assay: cross-linking
[5] = biological target: T2, Full-length Dreb2a fused to His-tag and …; assay: SPR

stoichiometry N [1]: 1 and 2
Molecule: Med25 551-680-GST (GST-tagged ACID domain of Arabidopsis thaliana Med25) (from UniProt Q7XYY2 551-680) (domain or fragment)

B1: 29-nt rd29A DRE Wt-probe (dsDNA)
DNA 1: AAAGATATACTACCGACATGAGTTCCAAA
DNA 2: TTTGGAACTCATGTCGGTAGTATATCTTT
binding result [2]: binds | binding result (Dreb2a f.l. (GB1 fusion)): binds

B2: 29-nt rd29A mutated DRE mut-probe (dsDNA)
DNA 1: AAAGATATACTACTTTTATGAGTTCCAAA
DNA 2: TTTGGAACTCATAAAAGTAGTATATCTTT
binding result (Dreb2a f.l. (GB1 fusion)): no binding

Kd [3]: ~1000 nM | stoichiometry N [4]: 2 | Kd [5]: ~100 nM
B3: Med25 551-680 (ACID domain of the Med25 mediator subunit from Arabidopsis thaliana), GST-tag removed (domain or fragment, A. thaliana, UniProt Q7XYY2 551-680, looked up)
chain: TSQSKYVKVWEGNLSGQRQGQPVLITRLEGYRSASASDSLAANWPPTMQIVRLISQDHMNNKQYVGKADFLVFRAMSQHGFLGQLQDKKLCAVIQLPSQTLLLSVSDKACRLIGMLFPGDMVVFKPQIPN
